Test results as given in US20040138119.

Columns and labels:
[1] = target: purified recombinant Survivin (untagged)
[2] = target: combination of His6-HBXIP and Survivin

B1: His6-pro-Caspase-9 (protein)
chain: HHHHHHMDEADRRLLRRCRLRLVEELQVDQLWDALLSRELFRPHMIEDIQRAGSGSRRDQARQLIIDLETRGSQALPLFISCLEDTGQDMLASFLRTNRQAAKLSKPTLENLTPVVLRPEIRKPEVLRPETPRPVDIGSGGFGDVGALESLRGNADLAYILSMEPCGHCLIINNVNFCRESGLRTRTGSNIDCEKLRRRFSSLHFMVEVKGDLTAKKMVLALLELAQQDHGALDCCVVVILSHGCQASHLQFPGAVYGTDGCPVSVEKIVNIFNGTSCPSLGGKPKLFFIQACGGEQKDHGFEVASTSPEDESPGSNPEPDATPFQEGLRTFDQLDAISSLPTPSDIFVSYSTFPGFVSWRDPKSGSWYVETLDDIFEQWAHSEDLQSLLLRVANAVSVKGIYKQMPGCFNFLRKKLFFKTS
- Caspase-9 activity (cleavage of Ac-LEHD-AFC) and pro-Caspase-9 processing after Apaf1, Cytochrome C and dATP (His6-HBXIP): Addition of either recombinant purified Survivin or HBXIP individually was ineffective at blocking Apaf1-mediated activation and proteolytic processing of pro-Caspase-9 in vitro.
- Caspase-9 activity (cleavage of Ac-LEHD-AFC) and pro-Caspase-9 processing after Apaf1, Cytochrome C and dATP [1]: Addition of either recombinant purified Survivin or HBXIP individually was ineffective at blocking Apaf1-mediated activation and proteolytic processing of pro-Caspase-9 in vitro.
- Caspase-9 activity (cleavage of Ac-LEHD-AFC) and pro-Caspase-9 processing after Apaf1, Cytochrome C and dATP [2]: the combination of Survivin and HBXIP effectively suppressed generation of Caspase-9 protease activity

B2: recombinant active Caspase-3 (protein)
chain: SGISLDNSYKMDYPEMGLCIIINNKNFHKSTGMTSRSGTDVDAANLRETFRNLKYEVRNKNDLTREEIVELMRDVSKEDHSKRSSFVCVLLSHGEEGIIFGTNGPVDLKKITNFFRGDRCRSLTGKPKLFIIQACRGTELDCGIETDSGVDDDMACHKIPVEADFLYAYSTAPGYYSWRNSKDGSWFIQSLCAMLKQYADKLEFMHILTRVNRKVATEFESFSFDATFHAKKQIPCIVSMLTKELYFYH
- Caspase-3 protease activity, hydrolysis of Ac-DEVD-AFC [1]: Even at a 1000-fold molar excess of Survivin relative to active Caspase-3, essentially no inhibition was observed.
